# Assay results from publication PMC6888645 (2019).
# B1: TD-N-CAP2, human CAP2 helical folded domain with the coiled coil (a.a. 1-29) replaced by the trimerization domain 2L6HC3_6 (other)
# chain: GTKYKIKETLKRLEDSLRELRRILEELKEMLERLEKNPDKDVIVEVLKVIVKAIEASVENQRISAENQKALAESDGNCGEVNGVIAGVAPSVEAFDKLMDSMVAEFLKNSRILAGDVETHAEMVHSAFQAQRAFLLMASQYQQPHENDVAALLKPISEKIQEIQTFRERNRGSNMFNHLSAVSESIPALGWIAVSPKPGPYVKEMNDAATFYTNRVLKDYKHSDLRHVDWVKSYLNIWSELQAYIKEHHTTGLTWSKTGPVASTVS
# B2: DD-N-CAP2, human CAP2 helical folded domain with the coiled coil (a.a. 1-29) replaced by the dimerization domain 2L4HC2_23 (other)
# chain: GTRTEIIRELERSLREQEELAKRLKELLRELERLQREGSSDEDVRELLREIKELVEEIEKLAREQKYLVEELKRQDGNCGEVNGVIAGVAPSVEAFDKLMDSMVAEFLKNSRILAGDVETHAEMVHSAFQAQRAFLLMASQYQQPHENDVAALLKPISEKIQEIQTFRERNRGSNMFNHLSAVSESIPALGWIAVSPKPGPYVKEMNDAATFYTNRVLKDYKHSDLRHVDWVKSYLNIWSELQAYIKEHHTTGLTWSKTGPVASTVS
# B3: ΔCC-N-CAP2, helical folded domain of human CAP2 with the coiled coil deleted (a.a. 30-220) (domain or fragment)
# chain: GNCGEVNGVIAGVAPSVEAFDKLMDSMVAEFLKNSRILAGDVETHAEMVHSAFQAQRAFLLMASQYQQPHENDVAALLKPISEKIQEIQTFRERNRGSNMFNHLSAVSESIPALGWIAVSPKPGPYVKEMNDAATFYTNRVLKDYKHSDLRHVDWVKSYLNIWSELQAYIKEHHTTGLTWSKTGPVASTVS
# B4: DD-N-CAP1, human CAP1 helical folded domain with the coiled coil (a.a. 1-29) replaced by the dimerization domain 2L4HC2_23 (other)
# chain: GTRTEIIRELERSLREQEELAKRLKELLRELERLQREGSSDEDVRELLREIKELVEEIEKLAREQKYLVEELKRQDGYADSPSKAGAAPYVQAFDSLLAGPVAEYLKISKEIGGDVQKHAEMVHTGLKLERALLVTASQCQQPAENKLSDLLAPISEQIKEVITFREKNRGSKLFNHLSAVSESIQALGWVAMAPKPGPYVKEMNDAAMFYTNRVLKEYKDVDKKHVDWVKAYLSIWTELQAYIKEFHTTGLAWSKTGPVAKELSGL
# B5: ΔCC-N-CAP1, helical folded domain of human CAP1 with the coiled coil (a.a. 1-29) deleted (domain or fragment)
# chain: GYADSPSKAGAAPYVQAFDSLLAGPVAEYLKISKEIGGDVQKHAEMVHTGLKLERALLVTASQCQQPAENKLSDLLAPISEQIKEVITFREKNRGSKLFNHLSAVSESIQALGWVAMAPKPGPYVKEMNDAAMFYTNRVLKEYKDVDKKHVDWVKAYLSIWTELQAYIKEFHTTGLAWSKTGPVAKELSGL
# B6: N-CAP1, N-terminal fragment of human cyclase-associated protein 1 (original coiled coil and helical folded domain) (domain or fragment)
# chain: MADMQNLVERLERAVGRLEAVSHTSDMHRGYADSPSKAGAAPYVQAFDSLLAGPVAEYLKISKEIGGDVQKHAEMVHTGLKLERALLVTASQCQQPAENKLSDLLAPISEQIKEVITFREKNRGSKLFNHLSAVSESIQALGWVAMAPKPGPYVKEMNDAAMFYTNRVLKEYKDVDKKHVDWVKAYLSIWTELQAYIKEFHTTGLAWSKTGPVAKELSGL
# B7: TD-N-CAP1, human CAP1 helical folded domain with the coiled coil (a.a. 1-29) replaced by the trimerization domain 2L6HC3_6 (other)
# chain: GTKYKIKETLKRLEDSLRELRRILEELKEMLERLEKNPDKDVIVEVLKVIVKAIEASVENQRISAENQKALAESDGYADSPSKAGAAPYVQAFDSLLAGPVAEYLKISKEIGGDVQKHAEMVHTGLKLERALLVTASQCQQPAENKLSDLLAPISEQIKEVITFREKNRGSKLFNHLSAVSESIQALGWVAMAPKPGPYVKEMNDAAMFYTNRVLKEYKDVDKKHVDWVKAYLSIWTELQAYIKEFHTTGLAWSKTGPVAKELSGL
# Biological target: T1, F-actin (skeletal muscle actin, polymerised) ( (rabbit or chicken skeletal …, UniProt P68135 1-377))
row,Kd [µM],Binder
1,0.68,B1
2,7.11,B2
3,21.9,B3

# Biological target: T1, F-actin (skeletal muscle actin, …)
# Remark: another data set of the same source
row,Kd [µM],Binder
1,3.42,B4
2,5.69,B5
3,0.91,B6
4,2.97,B7
